Results: patent US20260027179A1, “ANTI-SYNUCLEINOPATHY PEPTIDE AND METHODS TO TREAT NEURODEGENERATIVE DISEASES” (University of British Columbia, priority 2021, published 2026)

Tests used:
[1] = system: HSP90; test: HSP90 level in cortical cultures, immunoblot; type: cell-based, rat; details: 50 μM, 24 hrs
Protocol: (§1) Primary rat neuron cultures were prepared from embryos of pregnant Sprague-Dawley rats (E18). The experimental protocol was approved by the University of British Columbia Animal Care Committee. Briefly, the cortical tissue or ventral midbrain tissue was isolated into ice cold HBSS (Invitrogen, 14170-112) and then digested with 0.25% trypsin-EDTA at 37° C. for 30 min. After washing with warm DMEM (supplemented with 10% FBS) three times, neurons were suspended in neuron culture media and dissociated by trituration using varying sizes of pipettes. Neurons were then centrifuged, and the pellet was re-suspended in culture media, washed twice with culture media, and plated on the poly-D-lysine-coated plates. Neuron culture was maintained in the 37° C. incubator with 95% O2 and 5% CO2. The morning after culturing, 2/3 of the neuron culture media was replaced with fresh neuron culture media. Media was then replaced every 3-4 days. […]
(§2) Brain tissues or cultured cells were lysed on ice in the lysis buffer and then the solution was centrifuged at 14,000 rpm for 10 min at 4° C. Next, the supernatant was collected and protein concentrations were determined using a BCA protein assay kit (Thermo Scientific, 23227). […] The band density of each protein was quantified by the Bio-Rad Quantity One software and the relative optical density was analyzed relative to the loading control β-actin on the same membrane.

[2] = biological target: T1, endogenous α-synuclein (Mus musculus, UniProt O55042); test: α-synuclein expression in peripheral and brain tissues after peptide injection; type: in vivo; details: 6 μmol/kg, i.p., 6 hours after peptide injection
T1 construct: from tissue; host or cells: kidney, spleen, ventral midbrain, striatum

[3] = biological target: T2, human A53T α-synuclein (Homo sapiens, UniProt P37840, A53T); test: Brain α-synuclein ELISA in M83 transgenic mice after i.p. injection; type: in vivo, mouse; details: 40 mg/kg i.p.
T2 construct: tissue The Jackson Laboratory 004479; host or cells: brain of M83 hemizygous transgenic mice
Protocol: Tat-βsyn-degron peptide was also shown to decrease α-synuclein levels in vivo, using M83 transgenic mice that overexpress mutant human A53T α-synuclein. M83 mice, injected intra-peritoneally (i.p.) with 40 mg/kg Tat-βsyn-degron peptide, were sacrificed at time points of 6, 12, 24, and 48 hrs and α-synuclein levels in the brain were measured by ELISA.
Male M83 hemizygous mice overexpressing the human A53T α-synuclein mutant (12 weeks old, 25-30 g, 004479, The Jackson Laboratory) were housed individually and maintained on a 12/12 hrs light/dark cycle at 22° C. ambient temperature and with unlimited access to food and water. Housing, breeding, and procedures were performed according to the Canadian Council on Animal Care and were approved by the McGill University Animal Care Committee.
Brains were lysed (1 g tissue per 3 mL solution) in a buffer solution (50 mM Tris pH 8, 150 mM NaCl, 5 mM EDTA, 1% NP-40, 0.5% sodium deoxycholate, 0.1% SDS, protease and inhibitor cocktail [aprotinin, leupeptin and benzamidine], and phosphatase inhibitor cocktail) on ice. Lysates were homogenized at 1,600 g several times, sonicated and finally centrifuged at 100,000 g for 30 min. The supernatant was collected and processed with the Human α-synuclein ELISA kit (KHB0061, ThermoFisher Scientific) and analyzed with a Tecan microplate reader (Tecan Infinite M200 Pro, life science). The level of α-synuclein was expressed as ng/ml total sample.

[4] = system: 14-3-3; test: 14-3-3 level in cortical cultures, immunoblot; type: cell-based, rat; details: 50 μM, 24 hrs
Protocol: as §1, §2

[5] = biological target: T3, endogenous α-synuclein (Rattus norvegicus, UniProt P37377); test: Knockdown of endogenous α-synuclein in primary cortical neuron cultures, immunoblot; type: cell-based
T3 construct: endogenous in cells; host or cells: primary rat cortical neurons (14 DIV) and primary rat ventral midbrain neurons (3 DIV)
Protocol: Primary rat neuron cultures were prepared from embryos of pregnant Sprague-Dawley rats (E18). The experimental protocol was approved by the University of British Columbia Animal Care Committee. Briefly, the cortical tissue or ventral midbrain tissue was isolated into ice cold HBSS (Invitrogen, 14170-112) and then digested with 0.25% trypsin-EDTA at 37° C. for 30 min. After washing with warm DMEM (supplemented with 10% FBS) three times, neurons were suspended in neuron culture media and dissociated by trituration using varying sizes of pipettes. Neurons were then centrifuged, and the pellet was re-suspended in culture media, washed twice with culture media, and plated on the poly-D-lysine-coated plates. Neuron culture was maintained in the 37° C. incubator with […] and 5% CO2. The morning after culturing, 2/3 of the neuron culture media was replaced with fresh neuron culture media. Media was then replaced every 3-4 days. Primary rat cortical neuron culture was used 14 days in vitro (DIV) and primary rat ventral midbrain neuron culture was used 3 DIV.
Tat-βsyn-degron and Tat-βsyn peptides were first dissolved in sterile water as a 25 mM stock solution and then diluted directly in the neurobasal culture media to make the desired working concentration. 20 mM MPP+iodide stock solution was made freshly each time and diluted in the neurobasal culture media directly to make the desired working concentration. For 48 hrs treatment, neuron culture media containing MPP+ and peptides were replaced every 24 hrs.
Brain tissues or cultured cells were lysed on ice in the lysis buffer and then the solution was centrifuged at 14,000 rpm for 10 min at 4° C. Next, the supernatant was collected and protein concentrations were determined using a BCA protein assay kit (Thermo Scientific, 23227). Equal amount of protein samples was mixed with 4× sample buffer, boiled at 100° C. for 5 min, and separated on 10% sodium dodecyl sulphate-polyacrylamide gel electrophoresis (SDS-PAGE). Proteins were then transferred to Immobilon-PTM polyvinylidene fluoride (PVDF) membranes (Bio-Rad, 162-0177). The membranes were blocked with 5% non-fat milk in Tris-buffered saline containing 0.1% Tween-20 (TBST) for 1 hr at room temperature, and then incubated overnight at 4° C. with primary antibody. After washing 3×5 min in TBST, membranes were incubated with horseradish peroxidase-conjugated secondary antibody for 1 hr at room temperature. After another three washes with TBST, protein was visualized in the Bio-Rad Imager using ECL western blotting substrate (Pierce, 32016). The band density of each protein was quantified by the Bio-Rad Quantity One software and the relative optical density was analyzed relative to the loading control β-actin on the same membrane.

[6] = biological target: T3, endogenous α-synuclein; test: α-synuclein level in MPP+-treated ventral midbrain cultures, immunoblot; type: cell-based; details: 25 μM, 48 hrs, MPP+ 20 μM
Protocol: as §1, §2

[7] = system: C57BL/6 mice; test: MPTP mouse model, rotarod test; type: in vivo; details: peptide 6 μmol/kg i.p. twice a day for 12 days, vs MPTP group
Protocol: C57BL/6 mice (20-25 g) received intraperitoneal (i.p.) injection of 30 mg/kg parkinsonian toxin MPTP hydrochloride once a day for 5 days to induce dopaminergic neuron death in the substantia nigra, while the control mice received equal volumes of saline injection. 6 μmol/kg Tat-βsyn-degron peptide or control Tat-βsyn peptide was i.p. injected into the MPTP-treated mice every 12 hrs from the first day of MPTP injection until 7 days after the last injection of MPTP. All groups of mice then underwent a rotarod test before they were sacrificed.
The rotarod test was performed as previously described (Heldermon, C. D. et al., PloS one 2, e772, doi:10.1371/journal.pone.0000772 (2007)), with modifications. Briefly, 6 days after the last MPTP injection, all mice received 4 rounds of training on the rotarod (Stoelting Co.). In the first two rounds of training, the rotarod was maintained at constant speed of 20 rpm for 3 min. In the second two rounds of training, the rotarod reversed rotation direction every 3 turns at the constant speed of 20 rpm for 3 min. […] Mice were tested 10 times at 20 min intervals, and the time that they remained on the rotarod during each test was recorded. […] The motor performance of the mouse was expressed as the latency to fall off the rotarod.

Which “expression level of HSP90” value [1] does the source give for “YGRKKRRQRRRRTKSGVYLVGRRRG (The sequence is synthesized (YGRKKRRQRRRRTKSGVYLVGRRRG)) [Tat-βsyn-degron]” here?
The value was “did not affect the expression levels”.

And the “α-synuclein expression in the kidney” value [2]?
The value was “significantly reduce the α-synuclein expression”.

What about the “α-synuclein expression in the spleen” value [2] of the same sequence?
Its value is “significantly reduce the α-synuclein expression”.

What about the “α-synuclein expression in the striatum” value [2] of the same sequence?
The value was “significantly reduce the α-synuclein expression”.

What about the “α-synuclein expression in the ventral midbrain” value [2] of the same sequence?
The value was “significantly reduce the α-synuclein expression”.

What about the “time of peak effect on brain α-synuclein” value [3] of the same sequence?
Its value is “around 24 hrs”.

What about the “α-synuclein levels in the brain (ELISA)” value ([3]; 12 hrs) of the same sequence?
The value was “reduction of α-synuclein levels”.

What about the “α-synuclein levels in the brain (ELISA)” value ([3]; 24 hrs) of the same sequence?
The value was “reduction of α-synuclein levels”.

And the “expression level of 14-3-3” value [4]?
The value was “did not affect the expression levels”.

And the “time course of knockdown of endogenous α-synuclein” value ([5]; 50 μM bath application, primary cortical cultures)?
Its value is “induced a time-dependent knockdown of endogenous α-synuclein”.

What about the “endogenous α-synuclein protein levels” value ([5]; bath application 24 hrs, 5-50 μM (control 50 μM), cortical neuron cultures) of the same sequence?
Its value is “robust reduction of endogenous α-synuclein protein levels in a dose-dependent manner”.

What about the “endogenous α-synuclein protein levels” value [6] of the same sequence?
The value was “induced a robust reduction in endogenous α-synuclein protein levels”.

And the “MPTP-induced motor deficits (latency to fall off the rotarod)” value [7]?
The value was “significantly reduced”.
